Paper PMC4359615 (Journal of Structural Biology, 2015)

B1: A49 subunit of RNA polymerase I (natural protein, S. cerevisiae)
chain: MSVKRSVSEIEIESVQDQPSVAVGSFFKGFRAPSDTTFDLYKKKKSEKDEFVLHGENERLEYEGYTDSSSQASNQYVVGLFNPEKKSIQLYKAPVLVSKVVSKSSKNLRGPKIKSKSDTRPSALRNALGEAFGTKKAKKAIADLERNRIDSDKLTDSAIDIVDSVRTASKDLPTRAQLDEITSNDRPTPLANIDATDVEQIYPIESIIPKKELQFIRVSSILKEADKEKKLELFPYQNNSKYVAKKLDSLTQPSQMTKLQLLYYLSLLLGVYENRRVNNKTKLLERLNSPPEILVDGILSRFTVIKPGQFGRSKDRSYFIDPQNEDKILCYILAIIMHLDNFIVEITPLAHELNLKPSKVVSLFRVLGAIVKGATVAQAEAFGIPKSTAASYKIATMKVPFKLPEMTRRGRGPRR
B2: A135 subunit of RNA polymerase I (natural protein, S. cerevisiae)
chain: MSKVIKPPGQARTADFRTLERESRFINPPKDKSAFPLLQEAVQPHIGSFNALTEGPDGGLLNLGVKDIGEKVIFDGKPLNSEDEISNSGYLGNKLSVSVEQVSIAKPMSNDGVSSAVERKVYPSESRQRLTSYRGKLLLKLKWSVNNGEENLFEVRDCGGLPVMLQSNRCHLNKMSPYELVQHKEESDEIGGYFIVNGIEKLIRMLIVQRRNHPMAIIRPSFANRGASYSHYGIQIRSVRPDQTSQTNVLHYLNDGQVTFRFSWRKNEYLVPVVMILKALCHTSDREIFDGIIGNDVKDSFLTDRLELLLRGFKKRYPHLQNRTQVLQYLGDKFRVVFQASPDQSDLEVGQEVLDRIVLVHLGKDGSQDKFRMLLFMIRKLYSLVAGECSPDNPDATQHQEVLLGGFLYGMILKEKIDEYLQNIIAQVRMDINRGMAINFKDKRYMSRVLMRVNENIGSKMQYFLSTGNLVSQSGLDLQQVSGYTVVAEKINFYRFISHFRMVHRGSFFAQLKTTTVRKLLPESWGFLCPVHTPDGSPCGLLNHFAHKCRISTQQSDVSRIPSILYSLGVAPASHTFAAGPSLCCVQIDGKIIGWVSHEQGKIIADTLRYWKVEGKTPGLPIDLEIGYVPPSTRGQYPGLYLFGGHSRMLRPVRYLPLDKEDIVGPFEQVYMNIAVTPQEIQNNVHTHVEFTPTNILSILANLTPFSDFNQSPRNMYQCQMGKQTMGTPGVALCHRSDNKLYRLQTGQTPIVKANLYDDYGMDNFPNGFNAVVAVISYTGYDMDDAMIINKSADERGFGYGTMYKTEKVDLALNRNRGDPITQHFGFGNDEWPKEWLEKLDEDGLPYIGTYVEEGDPICAYFDDTLNKTKIKTYHSSEPAYIEEVNLIGDESNKFQELQTVSIKYRIRRTPQIGDKFSSRHGQKGVCSRKWPTIDMPFSETGIQPDIIINPHAFPSRMTIGMFVESLAGKAGALHGIAQDSTPWIFNEDDTPADYFGEQLAKAGYNYHGNEPMYSGATGEELRADIYVGVVYYQRLRHMVNDKFQVRSTGPVNSLTMQPVKGRKRHGGIRVGEMERDALIGHGTSFLLQDRLLNSSDYTQASVCRECGSILTTQQSVPRIGSISTVCCRRCSMRFEDAKKLLTKSEDGEKIFIDDSQIWEDGQGNKFVGGNETTTVAIPFVLKYLDSELSAMGIRLRYNVEPK

Experiments:
[1] = target: B2; assay: cross-linking
[2] = target: A190 subunit of RNA polymerase I (S. cerevisiae, UniProt P10964 1-1664); assay: cross-linking
A190 subunit of RNA polymerase I, sequence (P10964 whole entry): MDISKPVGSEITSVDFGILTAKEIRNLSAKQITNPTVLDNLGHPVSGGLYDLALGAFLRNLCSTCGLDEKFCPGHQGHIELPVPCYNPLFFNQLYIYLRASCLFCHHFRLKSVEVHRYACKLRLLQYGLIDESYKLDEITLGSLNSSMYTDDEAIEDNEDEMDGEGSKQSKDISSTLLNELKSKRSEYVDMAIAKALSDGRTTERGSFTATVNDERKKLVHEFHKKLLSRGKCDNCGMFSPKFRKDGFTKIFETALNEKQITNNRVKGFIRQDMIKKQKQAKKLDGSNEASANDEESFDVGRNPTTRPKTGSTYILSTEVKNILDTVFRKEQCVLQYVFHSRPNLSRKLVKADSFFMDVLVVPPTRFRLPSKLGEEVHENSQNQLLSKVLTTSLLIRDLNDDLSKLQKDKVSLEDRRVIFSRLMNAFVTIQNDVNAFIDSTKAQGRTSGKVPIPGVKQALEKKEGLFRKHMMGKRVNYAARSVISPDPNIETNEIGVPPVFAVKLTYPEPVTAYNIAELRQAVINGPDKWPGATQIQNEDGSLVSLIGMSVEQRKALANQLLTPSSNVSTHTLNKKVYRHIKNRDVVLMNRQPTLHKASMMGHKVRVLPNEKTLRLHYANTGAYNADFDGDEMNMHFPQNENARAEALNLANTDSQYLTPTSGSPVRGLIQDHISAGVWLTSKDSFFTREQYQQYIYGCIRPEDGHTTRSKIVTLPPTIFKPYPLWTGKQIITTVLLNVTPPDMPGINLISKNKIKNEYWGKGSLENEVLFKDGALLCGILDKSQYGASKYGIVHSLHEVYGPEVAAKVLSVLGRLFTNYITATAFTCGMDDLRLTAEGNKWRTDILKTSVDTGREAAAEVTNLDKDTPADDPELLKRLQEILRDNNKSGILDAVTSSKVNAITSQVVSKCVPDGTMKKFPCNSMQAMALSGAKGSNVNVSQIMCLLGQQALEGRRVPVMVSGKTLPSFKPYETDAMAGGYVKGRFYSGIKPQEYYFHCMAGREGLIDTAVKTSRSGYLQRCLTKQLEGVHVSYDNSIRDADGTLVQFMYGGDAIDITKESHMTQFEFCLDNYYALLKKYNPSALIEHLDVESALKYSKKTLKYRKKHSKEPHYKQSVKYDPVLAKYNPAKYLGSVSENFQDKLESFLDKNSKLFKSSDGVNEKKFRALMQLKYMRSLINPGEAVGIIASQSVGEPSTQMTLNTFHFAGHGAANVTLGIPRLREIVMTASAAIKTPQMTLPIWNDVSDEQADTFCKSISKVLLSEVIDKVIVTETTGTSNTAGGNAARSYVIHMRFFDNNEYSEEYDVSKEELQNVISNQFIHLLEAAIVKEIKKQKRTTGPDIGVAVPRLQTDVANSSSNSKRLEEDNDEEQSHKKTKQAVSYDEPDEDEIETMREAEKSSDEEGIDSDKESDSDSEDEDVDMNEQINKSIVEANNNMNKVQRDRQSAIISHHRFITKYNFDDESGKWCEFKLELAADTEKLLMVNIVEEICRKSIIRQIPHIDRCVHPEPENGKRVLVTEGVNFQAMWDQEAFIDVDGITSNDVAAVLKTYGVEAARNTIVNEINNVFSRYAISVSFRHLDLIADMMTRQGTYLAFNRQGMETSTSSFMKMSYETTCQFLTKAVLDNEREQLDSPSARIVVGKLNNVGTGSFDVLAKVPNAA

Row | Binder | binding result [1] | binding result [2]
1 | B1 | binds | binds
2 | B2 | – | binds
